Experimental data as given in the supplement of paper PMC7877785.
± gives the uncertainty stated by the source.

Assay: self-splicing fitness, log relative to wild type (ln ratio); higher = more splicing; Tetrahymena group I intron in knt gene, E. coli kanamycin selection, DiMSum; sequences stand for … in CUCUCU…GGAGGGAAAAGUUAUCAGGCAUGCACCUGGUAGCUAGUCUUUAAACCAAUAGAUUGCAUCGGUUUAAAAGGCAAGACCGUCAAAUUGCGGGAAAGGGGUCAACAGCCGUUCAGUACCAAGUCUCAGGGGAAACUUUGAGAUGGCCUUGCAAAGGGUAUGGUAAUAAGCUGACGGACAUGGUCCUAACCACGCAGCCAAGUCCUAAGUCAACAGAUCUUCUGUUGAUAUGGAUGCAGUUCACAGACUAAAUGUCGGUCGGGGAAGAUGUAUUCUUCUCAUAAGAUAUAGUCGGACCUCUCCUUAAUGGGAGCUAGCGGAUGAAGUGAUGCAACACUGGAGCCGCUGGGAACUAAUUUGUAUGCGAAAGUAUAUUGAUUAGUUUUGGAGUACUCGUGGUCG
Outline: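 Fitness was computed with DiMSum as the error-weighted combination of replicate fold changes, kanamycin versus none, each normalised to wild type. The library randomised all eight intron nucleotides of the P1ex region, with the intron placed in the knt kanamycin-resistance gene on pET-22b(+) in E. coli BL21(DE3). Six replicate transformations were grown overnight at 37°C or 30°C on LB agar with or without 25 μg/mL kanamycin, plus 100 μg/mL carbenicillin, 50 μM IPTG and 0.2% rhamnose. Pooled colonies were amplicon-sequenced on an Illumina HiSeq 2500.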

| Sequence | self-splicing fitness (ln) (30 °C) | self-splicing fitness (ln) (37 °C) |
| --- | --- | --- |
| CAGUAGCAAUAUUACGACAU | -3.226 ± 0.023 | -1.83 ± 0.036 |
| AGUAAGCAAUAUUACGUAUA | -2.38 ± 0.42 | -1.97 ± 0.28 |
| UAUAAGCAAUAUUACGUGCA | -0.333 ± 0.085 | -0.0529 ± 0.1 |
| AGGUAGCAAUAUUACGUCGC | -2.37 ± 0.023 | -1.48 ± 0.037 |
| CGAAAGCAAUAUUACGCGGA | -3.29 ± 0.26 | -1.83 ± 0.17 |
| UUGUAGCAAUAUUACGAAUC | -3.06 ± 0.14 | -2.76 ± 0.24 |
| UGUCAGCAAUAUUACGUCUC | -2.3 ± 0.15 | -1.86 ± 0.22 |
| GGGUAGCAAUAUUACGCUCG | -0.269 ± 0.13 | -0.258 ± 0.16 |
| AGGUAGCAAUAUUACGGUCA | -0.279 ± 0.014 | 0.00808 ± 0.033 |
| GAAGAGCAAUAUUACGCUCU | -3.53 ± 0.23 | -2.74 ± 0.24 |
| AACUAGCAAUAUUACGAGUA | -0.62 ± 0.07 | -0.322 ± 0.083 |
| CUGAAGCAAUAUUACGUGAA | -2.91 ± 0.23 | -1.93 ± 0.26 |
| AAGCAGCAAUAUUACGUCAA | -1.1 ± 0.091 | -1.36 ± 0.096 |
| CAGGAGCAAUAUUACGCGCG | -1.45 ± 0.14 | -0.0818 ± 0.14 |
| GAACAGCAAUAUUACGGAAU | -1.6 ± 0.095 | -1.18 ± 0.11 |
| ACGCAGCAAUAUUACGCACG | -1.8 ± 0.12 | -1.31 ± 0.12 |
| UGGUAGCAAUAUUACGCUGU | -3.24 ± 0.19 | -2.12 ± 0.17 |
| GAAGAGCAAUAUUACGAGUA | -3.78 ± 0.37 | -2.75 ± 0.38 |
| CCAUAGCAAUAUUACGCGUU | -3.53 ± 0.23 | -2.51 ± 0.24 |
| CCUGAGCAAUAUUACGUAAC | – | -2.3 ± 0.35 |
| GGUCAGCAAUAUUACGCAAA | -1.16 ± 0.17 | -0.412 ± 0.18 |
| CACGAGCAAUAUUACGUUUU | -3.49 ± 0.15 | -2.94 ± 0.18 |
| GUCUAGCAAUAUUACGCAGC | -2.29 ± 0.14 | -0.0809 ± 0.12 |
| CUACAGCAAUAUUACGGACA | -1.52 ± 0.39 | -2.47 ± 0.38 |

| Sequence | self-splicing fitness (ln) (30 °C) | self-splicing fitness (ln) (37 °C) |
| --- | --- | --- |
| UCUUAGCAAUAUUACGUGGC | – | -1.6 ± 0.42 |
| UAUAAGCAAUAUUACGCAUC | -3.74 ± 0.2 | -2.38 ± 0.17 |
| CGAUAGCAAUAUUACGUUCU | -1.15 ± 0.07 | -0.384 ± 0.094 |
| GCCCAGCAAUAUUACGCAAU | -1.23 ± 0.059 | -0.336 ± 0.069 |
| UACUAGCAAUAUUACGCACU | -0.822 ± 0.068 | 0.229 ± 0.079 |
| CACUAGCAAUAUUACGACUA | -2.82 ± 0.23 | -1.43 ± 0.2 |
| UGCGAGCAAUAUUACGACGG | -1.41 ± 0.15 | -0.347 ± 0.16 |
| CGCAAGCAAUAUUACGUACA | -2.03 ± 0.11 | -0.56 ± 0.085 |
| CUGUAGCAAUAUUACGGGCG | -1.86 ± 0.09 | -0.334 ± 0.11 |
| GAUCAGCAAUAUUACGAUUC | -3.05 ± 0.38 | -1.79 ± 0.27 |
| GACCAGCAAUAUUACGAGGG | -3.24 ± 0.2 | -2.57 ± 0.21 |
| GUGCAGCAAUAUUACGGAUG | -2.72 ± 0.29 | -1.74 ± 0.25 |
| AUUUAGCAAUAUUACGUUCC | -1.54 ± 0.26 | -1.23 ± 0.49 |
| AGAAAGCAAUAUUACGCCUC | -1.37 ± 0.17 | -0.948 ± 0.23 |
| CGUGAGCAAUAUUACGCGCU | – | -1.8 ± 0.36 |
| ACGGAGCAAUAUUACGAGGA | -2.89 ± 0.27 | -2.92 ± 0.43 |
| GUUGAGCAAUAUUACGUCGC | -2.1 ± 0.35 | -1.17 ± 0.29 |
| UGUGAGCAAUAUUACGGCGA | -1.37 ± 0.14 | -1.05 ± 0.15 |
| UUCUAGCAAUAUUACGUGAU | -1.89 ± 0.18 | -1.34 ± 0.21 |
| UAGUAGCAAUAUUACGACAA | -0.402 ± 0.15 | -0.175 ± 0.14 |
| AUACAGCAAUAUUACGUGGU | -2.71 ± 0.13 | -2.27 ± 0.14 |
| AUGAAGCAAUAUUACGGUUA | -0.509 ± 0.058 | 0.318 ± 0.077 |
| CUUCAGCAAUAUUACGUGGA | -3.13 ± 0.33 | -3.04 ± 0.28 |
| UUACAGCAAUAUUACGGCUU | -1.13 ± 0.082 | -1.35 ± 0.1 |
